The text below walks through data of PMC3208551.

The target of assay [1] is ActRII-ECD (mouse). Put plainly: SPR; Biacore 2000; receptor ECDs immobilised on a CM5 chip by primary amine coupling, ligands flowed over; at least five concentrations plus zero; global 1:1 Langmuir binding with mass transfer, KD calculated as koff/kon.
Assay [2] deals with AB212 (BBBBBA) (human).

ActRII-ECD (mouse), sequence (P27038 whole entry, the tested form may be a part): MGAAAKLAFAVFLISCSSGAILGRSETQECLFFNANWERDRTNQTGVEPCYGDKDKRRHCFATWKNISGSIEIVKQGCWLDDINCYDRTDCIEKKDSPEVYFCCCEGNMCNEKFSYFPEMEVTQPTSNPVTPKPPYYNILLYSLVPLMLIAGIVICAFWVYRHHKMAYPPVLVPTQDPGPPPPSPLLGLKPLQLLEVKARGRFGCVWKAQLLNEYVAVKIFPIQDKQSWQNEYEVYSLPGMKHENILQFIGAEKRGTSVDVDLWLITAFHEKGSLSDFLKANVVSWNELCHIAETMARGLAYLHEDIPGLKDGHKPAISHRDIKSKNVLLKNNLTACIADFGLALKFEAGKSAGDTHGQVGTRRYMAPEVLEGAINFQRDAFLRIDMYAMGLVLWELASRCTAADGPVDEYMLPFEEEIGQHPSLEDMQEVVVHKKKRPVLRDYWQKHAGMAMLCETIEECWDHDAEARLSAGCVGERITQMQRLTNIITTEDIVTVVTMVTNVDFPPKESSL

Broadly, the Kd is a measure of binding affinity in units of concentration. The koff is the rate constant with which the complex falls apart. As a reminder, the kon is the rate constant with which the complex forms. For the molecule “BMP-2 (BBBBBB) (from UniProt P12643 283-396) (ligand)”, in assay [1], the Kd was 36.8 nM, the koff is 0.0405 s⁻¹ and the on-rate constant (kon) is 1.1e+06 M⁻¹ s⁻¹.

B1: Activin-βA (AAAAAA) (ligand)
chain: GLECDGKVNICCKKQFFVSFKDIGWNDWIIAPSGYHANYCEGECPSHIAGTSGSSLSFHSTVINHYRMRGHSPFANLKSCCVPTKLRPMSMLYYDDGQNIIKKDIQNMIVEECGCS
Take B1: in assay [1], the Kd was 0.203 nM, the koff was 0.000716 s⁻¹ and the kon is 3.52e+06 M⁻¹ s⁻¹.

B2: Noggin (natural protein)
chain: QHYLHIRPAPSDNLPLVDLIEHPDPIFDPKEKDLNETLLRSLLGGHYDPGFMATSPPEDRPGGGGGAAGGAEDLAELDQLLRQRPSGAMPSEIKGLEFSEGLAQGKKQRLSKKLRRKLQMWLWSQTFCPVLYAWNDLGSRFWPRYVKVGSCFSKRSCSVPEGMVCKPSKSVHLTVLRWRCQRRGGQRCGWIPIQYPIISECKCSC
Consider B2, for which the Smad1 luciferase reporter in C2C12 cells, 30 ng/ml ligand with 30, 100 and 300 ng/ml Noggin (% of signaling levels) in assay [2] stood at 75.
